CN112707964A

B1: WT 1-6 (antibody, from another filing, V domains shown)
VH: QVRLQESGPSQVKPAQTLSLTCAISGPSITTYYVDWVRHTPGKPPEWLAQMTKDANAVHQPTIRSRLSITRDTSKSQVFLKLTGVTTEDTAVYYCVKGLIDWGPGLLVTVSS
V domain: QAVLTQPSSVSRSLGQTVSITCSGSSDQVGPGDYLNWFQLIPGSAPKTLIFAASSRLRGVPDRFSGSRSGNTATLTINSLQAEDEADYYCGSANSRGGYVWGSGTRLTVLS
B2: WT 1-9 (antibody, from another filing, V domains shown)
VH: QVRLQESGPSQVKPAQTLSLTCAISGPSVTTYYIDWVRHTPGKPPEWLAQMTKDANAVHQPTLRSRLSITRDTSKSQVFLKLTGVTTEDTAVYYCVKGLIDWGPGLLVTVSS
V domain: QAVLTQPSSVSRSLGQTVSITCSGSSDNVGPGDYVNWFQLIPGSAPKTLIFAAYSRLRGVPDRFSGSRSGNTATLTINSLQAEDEADYYCGSGNSRGGYVWGSGTRLTVLS
B3: WT 1-8 (antibody, from another filing, V domains shown)
VH: QVRLQESGPSQVKPAQTLSLTCAISGPSLTTYYVDWVRHTPGKPPEWLAQMTKDANAVHQPTVRSRLSITRDTSKSQVFLKLTGVTTEDTAVYYCVKGIIDWGPGLLVTVSS
V domain: QAVLTQPSSVSRSLGQTVSITCSGSSDNVGPGDYINWFQLIPGSAPKTLIFAAYSRVRGVPDRFSGSRSGNTATLTINSLQAEDEADYYCGSPNSRNYVWGSGTRLTVLS
B4: WT 1-1 (antibody, from another filing, V domains shown)
VH: QVRLQESGPSQVKPAQTLSLTCAISGPSVTTYYIDWVRHTPGKPPEWLAQMTKDANAVHNPTIRSRLSITRDTSKSQVFLKLTGVTTEDTAVYYCVKGVIDWGPGLLVTVSS
V domain: QAVLTQPSSVSRSLGQTVSITCSGSSDNVGPGDYINWFQLIPGSAPKTLIFAAYSRIRGVPDRFSGSRSGNTATLTINSLQAEDEADYYCGSANSRNYVWGSGTRLTVLS
B5: WT 1-7 (antibody, from another filing, V domains shown)
VH: QVRLQESGPSQVKPAQTLSLTCAISGPSVTTYYLDWVRHTPGKPPEWLAQMTKDANAVHQPTVRSRLSITRDTSKSQVFLKLTGVTTEDTAVYYCVKGVIDWGPGLLVTVSS
V domain: QAVLTQPSSVSRSLGQTVSITCSGSSDNVGPGDYINWFQLIPGSAPKTLIFAAYSRLRGVPDRFSGSRSGNTATLTINSLQAEDEADYYCGSGNSRGGYVWGSGTRLTVLS
B6: WT 1-2 (antibody, from another filing, V domains shown)
VH: QVRLQESGPSQVKPAQTLSLTCAISGPSLTTYYIDWVRHTPGKPPEWLAQMTKDANAVHQPTLRSRLSITRDTSKSQVFLKLTGVTTEDTAVYYCVKGVIDWGPGLLVTVSS
V domain: QAVLTQPSSVSRSLGQTVSITCSGSSDNVGPGDYLNWFQLIPGSAPKTLIFAASSRIRGVPDRFSGSRSGNTATLTINSLQAEDEADYYCGSPNSRNYVWGSGTRLTVLS
B7: WT 1-5 (antibody, from another filing)
heavy: QVRLQESGPSQVKPAQTLSLTCAISGPSLTTYYLDWVRHTPGKPPEWLAQMTKDANAVHNPTVRSRLSITRDTSKSQVFLKLTGVTTEDTAVYYCVKGLIDFGPGLLVTVSSASTTPPKVYPLTSCCGDTSSSIVTLGCLVSSYMPEPVTVTWNSGALTSGVHTFPAILQSSGLYSLSSVVTVPASTSGAQTFICNVAHPASSTKVDKRVEPGCPDPCKHCRCPPPELPGGPSVFIFPPKPKDTLTISGTPEVTCVVVDVGQDDPEVQFSWFVDNVEVRTARTKPREEQFNSTFRVVSALPIQHQDWTGGKEFKCKVHNEGLPAPIVRTISRTKGQAREPQVYVLAPPQEELSKSTLSVTCLVTGFYPDYIAVEWQKNGQPESEDKYGTTTSQLDADGSYFLYSRLRVDKNSWQEGDTYACVVMHEALHNHYTQKSISKPPGK
light: QAVLTQPSSVSRSLGQTVSITCSGSSDQVGPGDYLNWFQLIPGSAPKTLIFAASSRIRGVPDRFSGSRSGNTATLTINSLQAEDEADYYCGSANSRNYVWGSGTRLTVLSQPKSAPSVTLFPPSKEELDTNKATVVCLISDFYPGSVNVVWKADGSTINQNVKTTQASKQSNSKYAASSYLTLTGSEWKSKSSYTCEVTHEGSTVTKTVKPSECS
B8: WT 1-4 (antibody, from another filing)
heavy: QVRLQESGPSQVKPAQTLSLTCAISGPSVTTYYVDWVRHTPGKPPEWLAQMTKDANAVHQPTLRSRLSITRDTSKSQVFLKLTGVTTEDTAVYYCVKGVIDFGPGLLVTVSSASTTPPKVYPLTSCCGDTSSSIVTLGCLVSSYMPEPVTVTWNSGALTSGVHTFPAILQSSGLYSLSSVVTVPASTSGAQTFICNVAHPASSTKVDKRVEPGCPDPCKHCRCPPPELPGGPSVFIFPPKPKDTLTISGTPEVTCVVVDVGQDDPEVQFSWFVDNVEVRTARTKPREEQFNSTFRVVSALPIQHQDWTGGKEFKCKVHNEGLPAPIVRTISRTKGQAREPQVYVLAPPQEELSKSTLSVTCLVTGFYPDYIAVEWQKNGQPESEDKYGTTTSQLDADGSYFLYSRLRVDKNSWQEGDTYACVVMHEALHNHYTQKSISKPPGK
light: QAVLTQPSSVSRSLGQTVSITCSGSSDQVGPGDYVNWFQLIPGSAPKTLIFAATSRIRGVPDRFSGSRSGNTATLTINSLQAEDEADYYCGSGNSRGGYVWGSGTRLTVLSQPKSAPSVTLFPPSKEELDTNKATVVCLISDFYPGSVNVVWKADGSTINQNVKTTQASKQSNSKYAASSYLTLTGSEWKSKSSYTCEVTHEGSTVTKTVKPSECS

Molecular target: 重组NT抗原(自产，130410) (human) (UniProt P16860)
UniProt P16860, sequence (P16860 27-102): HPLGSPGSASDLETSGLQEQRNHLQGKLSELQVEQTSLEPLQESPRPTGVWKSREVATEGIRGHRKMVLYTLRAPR
Assay: BLI, antibody captured on AMC sensor, antigen in solution

Binder | Kd
B1 | 5.25 nM
B2 | 7.55 nM
B3 | 8.36 nM
B4 | 6.25 nM
B5 | 6.76 nM
B6 | 6.74 nM
B7 | 5.31 nM
B8 | 9.63 nM
